# Test results reported in publication PMC3834070.
# Numbering of substitutions follows the chain as printed. In names and notes the source's numbering stands.
# B1: PG-inhibiting protein 2 of Phaseolus vulgaris pv Pinto (PvPGIP2) (natural protein)
# chain: ELCNPQDKQALLQIKKDLGNPTTLSSWLPTTDCCNRTWLGVLCDTDTQTYRVNNLDLSGLNLPKPYPIPSSLANLPYLNFLYIGGINNLVGPIPPAIAKLTQLHYLYITHTNVSGAIPDFLSQIKTLVTLDFSYNALSGTLPPSISSLPNLVGITFDGNRISGAIPDSYGSFSKLFTSMTISRNRLTGKIPPTFANLNLAFVDLSRNMLEGDASVLFGSDKNTQKIHLAKNSLAFDLGKVGLSKNLNGLDLRNNRIYGTLPQGLTQLKFLHSLNVSFNNLCGEIPQGGNLQRFDVSAYANNKCLCGSPLPACT
# B2: PvPGIP2.Q224E (natural protein)
# chain: B1 chain with Q224E
# B3: PvPGIP2.Q224K (natural protein)
# chain: B1 chain with Q224K
# Assays:
# [1] = molecular target: T1, FpPG.K310T (Fusarium phyllophilum) (UniProt Q07181)
# T1 sequence: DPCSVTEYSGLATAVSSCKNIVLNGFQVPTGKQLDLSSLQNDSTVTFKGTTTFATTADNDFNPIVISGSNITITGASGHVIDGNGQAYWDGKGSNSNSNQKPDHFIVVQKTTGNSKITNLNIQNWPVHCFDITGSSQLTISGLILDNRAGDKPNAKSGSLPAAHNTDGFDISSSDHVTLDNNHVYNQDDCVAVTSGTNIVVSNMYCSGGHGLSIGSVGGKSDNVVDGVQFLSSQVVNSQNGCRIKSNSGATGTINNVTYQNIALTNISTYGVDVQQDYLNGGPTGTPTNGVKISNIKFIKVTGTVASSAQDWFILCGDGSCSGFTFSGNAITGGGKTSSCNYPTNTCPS
# [2] = molecular target: T2, FpPG.L303E (Fusarium phyllophilum) (UniProt Q07181)
# T2 sequence: T1 sequence with L279E, T286K
# [3] = molecular target: T3, FpPG.S363K (Fusarium phyllophilum) (UniProt Q07181)
# T3 sequence: T1 sequence with T286K, S339K
# [4] = molecular target: Polygalacturonase 1 of Colletotrichum lupini (CluPG1) strain SHK78813 (Colletotrichum lupini)
# [5] = molecular target: T4, polygalacturonase of Fusarium phyllophilum (FpPG) (Fusarium phyllophilum) (UniProt Q07181)
# T4 sequence: T1 sequence with T286K
# [6] = molecular target: T5, FpPG.A274T (Fusarium phyllophilum) (UniProt Q07181)
# T5 sequence: T1 sequence with A250T, T286K
# [7] = molecular target: T6, FpPG.S120N-N121K-S122D (Fusarium phyllophilum) (UniProt Q07181)
# T6 sequence: T1 sequence with S96N, N97K, S98D, T286K
Binder,amount of PGIP causing 50% inhibition of one agarose diffusion unit of the PG (agar diffusion assay) [1] [pg],amount of PGIP causing 50% inhibition of one agarose diffusion unit of the PG (agar diffusion assay) [2] [pg],amount of PGIP causing 50% inhibition of one agarose diffusion unit of the PG (agar diffusion assay) [3] [pg],amount of PGIP causing 50% inhibition of one agarose diffusion unit of the PG (agar diffusion assay) [4] [pg],amount of PGIP causing 50% inhibition of one agarose diffusion unit of the PG (agar diffusion assay) [5] [pg],"fold loss of inhibition by PvPGIP2 against wild type FpPG, agar diffusion assay (Figure 5A) [6] [fold]","fold reduction of the efficiency of inhibition by PvPGIP2 against wild type FpPG, agar diffusion assay (Figure 5A) [7] [fold]",amount of PGIP causing 50% inhibition of one agarose diffusion unit of the PG (agar diffusion assay); ∞ indicates > 1500 ng [1] [pg],amount of PGIP causing 50% inhibition of one agarose diffusion unit of the PG (agar diffusion assay); ∞ indicates > 1500 ng [3] [pg],amount of PGIP causing 50% inhibition of one agarose diffusion unit of the PG (agar diffusion assay); ∞ indicates > 1500 ng [5] [pg]
B1,2000,2000,2000,2500,2000,150,25,,,
B2,2000,2000,2000,1100,2000,,,,,
B3,,20000,,2500,,,,> 1.5e+06,> 1.5e+06,> 1.5e+06
